Assay results as given in patent US20190241623A1 (EVAXION BIOTECH A S, published 2019).

How the values were obtained:
[1] = target: T1, MHC Class II molecule DRB1*01:01 (UniProt P01903 26-216; P01911 30-227); test: peptide:MHC II complex stability assay (Immunitrack)
T1 construct: Assay done by Immunitrack; the construct of the MHC II molecule is not described

[2] = target: T2, MHC Class II molecule DRB1*04:01 (UniProt P01903 26-216; P01911 30-227); test: as above
T2 construct: Assay done by Immunitrack; the construct of the MHC II molecule is not described

B1: SEQ ID NO 34 (peptide)
peptide: SSNVYMFKTALKLAG
notes: 15-mer peptide selected in silico from the S. aureus proteomes
binding result [1]: binds | binding result [2]: binds

B2: SEQ ID NO 40 (peptide)
peptide: YFRFQYFNPLKSERY
notes: as for B1
binding result [1]: binds | binding result [2]: binds

B3: SEQ ID NO 26 (peptide)
peptide: KADALKAITALKLQM
notes: as for B1
binding result [1]: binds | binding result [2]: binds

B4: SEQ ID NO 39 (peptide)
peptide: WKRIGRLKSIPIFMY
notes: as for B1
binding result [1]: binds | binding result [2]: binds

B5: SEQ ID NO 38 (peptide)
peptide: VLFYLRSNKRQIIEK
notes: as for B1
binding result [1]: binds | binding result [2]: binds

B6: SEQ ID NO 35 (peptide)
peptide: STFIYKIANERLFSR
notes: as for B1
binding result [1]: binds | binding result [2]: binds

B7: SEQ ID NO 24 (peptide)
peptide: IIKKLFRLPAIKRFE
notes: as for B1
binding result [1]: binds | binding result [2]: binds

B8: SEQ ID NO 28 (peptide)
peptide: KRIFKMSPIHHHFEL
notes: as for B1
binding result [1]: binds | binding result [2]: binds

B9: SEQ ID NO 33 (peptide)
peptide: QRHFQIGYNRAARII
notes: as for B1
binding result [1]: binds | binding result [2]: binds

B10: SEQ ID NO 32 (peptide)
peptide: MHFIAISINHRTADV
notes: as for B1
binding result [1]: binds | binding result [2]: binds

B11: SEQ ID NO 29 (peptide)
peptide: KTLFVALNNKARIPE
notes: as for B1
binding result [1]: binds | binding result [2]: binds

B12: SEQ ID NO 25 (peptide)
peptide: ILLGYFVAQRALVKA
notes: as for B1
binding result [1]: binds | binding result [2]: binds

B13: SEQ ID NO 21 (peptide)
peptide: EPINFILKSSTKLKA
notes: as for B1
binding result [1]: binds | binding result [2]: binds

B14: SEQ ID NO 22 (peptide)
peptide: FLKLFRITNPIARGL
notes: as for B1
binding result [1]: binds | binding result [2]: binds

B15: SEQ ID NO 27 (peptide)
peptide: KHQIRMLSIPRDTIS
notes: as for B1
binding result [1]: binds | binding result [2]: binds

B16: SEQ ID NO 30 (peptide)
peptide: LDQIIAQANLRLATM
notes: as for B1
binding result [1]: binds | binding result [2]: binds

B17: SEQ ID NO 31 (peptide)
peptide: LMGIRAFRKLLPNIP
notes: as for B1
binding result [1]: binds | binding result [2]: binds

B18: SEQ ID NO 37 (peptide)
peptide: TSQFHVLRALRLAQK
notes: as for B1
binding result [1]: binds | binding result [2]: binds

B19: SEQ ID NO 23 (peptide)
peptide: GLYFVAMNNLKAAGQ
notes: as for B1
binding result [1]: binds | binding result [2]: binds

B20: SEQ ID NO 36 (peptide)
peptide: SVTIIKSLQAIRVPF
notes: as for B1
binding result [1]: binds | binding result [2]: binds
